Test results from publication PMC9415858.
Values joined by “and” are separate entries in the source; they are usually repeats but may differ in a detail not shown here. Equal values may be shown once.

Target: His-Tagged FcRn (UniProt P55899)
Assay: SPR; His-tagged FcRn captured on an anti-His IgG1 antibody CM5 chip; antibody samples as analyte at 15, 5 and 1.66 nM in HBS-EP pH 6.0, 30 µL/min, 22 °C; steady-state model (the same data also fitted with a two-state model); mean of at least 5 measurements

UniProt P55899, sequence (P55899 24-297): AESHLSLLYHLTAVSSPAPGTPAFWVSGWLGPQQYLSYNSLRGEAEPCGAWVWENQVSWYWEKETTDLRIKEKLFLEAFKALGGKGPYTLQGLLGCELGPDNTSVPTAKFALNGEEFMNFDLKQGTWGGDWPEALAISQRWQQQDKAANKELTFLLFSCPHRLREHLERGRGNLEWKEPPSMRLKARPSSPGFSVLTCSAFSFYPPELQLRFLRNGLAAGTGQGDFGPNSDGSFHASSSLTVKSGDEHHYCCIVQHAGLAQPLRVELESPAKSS

Kd: 25 nM and 22.7 nM
Substance: Avastin (unfractionated innovator product) (antibody)
